{"source": "patent US9290553B2", "about": "“Peptides that modulate complex SASPase-FLG2” (L'OREAL, priority 2010, dated 2016)", "molecules": {"B1": {"name": "SEQ ID NO: 16: amino acid sequence extending from positions 97 to 173 of the Q53RT3 sequence of SASPase (protein, listed as Homo sapiens)", "chain": "RQHAFVPEPFDGANVVPNLWLHSFEVINDLNHWDHITKLRFLKESLRGEALGVYNRLSPQDQGDYGTVKEALLKAFG", "modifications": "/mol_type=“protein” /organism=“Homo sapiens”"}, "B2": {"name": "FLG2-Hs: recombinant filaggrin-2, positions 2 to 213 of Q5D862, fused to a Thioredoxin-His-S.Tag affinity label (protein)", "chain": "TDLLRSVVTVIDVFYKYTKQDGECGTLSKGELKELLEKELHPVLKNPDDPDTVDVIMHMLDRDHDRRLDFTEFLLMIFKLTMACNKVLSKEYCKASGSKKHRRGHRHQEEESETEEDEEDTPGHKSGYRHSSWSEGEEHGYSSGHSRGTVKCRHGSNSRRLGRQGNLSSSGNQEGSQKRYHRSSCGHSWSGGKDRHGSSSVELRERINKSHI", "modifications": "left off: large carriers"}, "B3": {"name": "SEQ ID NO: 9: amino acid sequence extending from positions 2 to 95 of filaggrin-2 Q5D862 (N-terminal S100 domain) (protein, listed as Homo sapiens)", "chain": "TDLLRSVVTVIDVFYKYTKQDGECGTLSKGELKELLEKELHPVLKNPDDPDTVDVIMHMLDRDHDRRLDFTEFLLMIFKLTMACNKVLSKEYCKA", "modifications": "/mol_type=“protein” /organism=“Homo sapiens”"}}, "key": {"SASPase_28": {"target": "T1, SASPase_28 (Homo sapiens, UniProt Q53RT3)", "T1 construct": "made in house", "T1 sequence (Q53RT3 85-343)": "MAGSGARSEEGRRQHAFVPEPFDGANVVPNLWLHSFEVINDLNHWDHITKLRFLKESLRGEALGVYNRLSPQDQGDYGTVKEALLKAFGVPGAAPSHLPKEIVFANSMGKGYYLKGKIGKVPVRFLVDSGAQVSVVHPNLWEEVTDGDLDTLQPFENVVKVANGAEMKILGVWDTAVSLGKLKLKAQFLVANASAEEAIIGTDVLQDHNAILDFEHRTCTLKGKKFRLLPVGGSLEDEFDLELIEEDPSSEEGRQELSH", "experiment": "SASPase proteolytic activity assay with Dabcyl-QIDRIMEK-Edans substrate", "type": "biochemical", "conditions": "for ability to increase the catalytic activity of SASPase: same enzymatic assay, FLG2-Hs replaced with the synthesized peptide", "procedure": "A recombinant 28 kDa SASPase (SASPase_28) constituted of the amino acids extending from positions 85 to 343 of the sequence represented by the reference Q53RT3 (Uniprot/Swissprot Ref.) was prepared as described by Bernard et al., (J. Invest. Dermatol., 2005, 125: 278-287).\nSASPase_28 at 0.025 mg/ml is in the presence of a colorimetric substrate, Dabcyl-QIDRIMEK-Edans, at 0.01 mM (Production Jerini Peptide Ref. D17: JPT Peptide Technologies GmbH) in a PBS buffer.\nThe hydrolysis of the colorimetric substrate by the activated SASPase results in the separation of the EDANS fluorochrome and of its deactivator (or quencher) Dabcyl, and in an increase in the EDANS fluorescence.\nThe fluorescent signal is measured at λex 340 nm/λem 490 nm. The fluorescence is read every 10 minutes for 1 h 30 min, at 37° C., with a SPECTRAMAX M5e (Molecular Devices).\nThe previous enzymatic assay was repeated with FLG2-Hs being replaced with each of the peptides thus prepared."}, "filaggrin-2 (FLG2)": {"target": "T2, filaggrin-2 (FLG2) (Homo sapiens, UniProt Q5D862)", "T2 construct": "expressed in transfected cells; host or cells: double-hybrid system", "T2 sequence (Q5D862 2-213)": "B2 chain", "experiment": "double-hybrid interaction of SASPase_28 fragments with filaggrin-2", "type": "binding", "conditions": "N-terminal fragment of SASPase_28, amino acids 11-86", "procedure": "A first study using the “double-hybrid” technique was carried out using the whole 28 kDa SASPase protein in its wild-type form (SASPase_28, GENBANK Ref. gi16553767) and in its form mutated at the catalytic aspartic acid (SASPase_28D128A), and also the 37 kDa SASPase form (SASPase_37), in its whole form (GENBANK Ref. gi189409121), and a fragment corresponding to the N-terminal end of 84 amino acids of the protein relative to the sequence of SASPase_28 ([…]).\nThe SASPase sequences were fused to a DNA-binding domain, LexA, according to the orientation N-LexA-SASPase-C, so as to keep the C-terminal end of the SASPase free, with the exception of the SASPase_28N84 sequence which is fused to the LexA domain according to the orientation N-SASPase_28N84-LexA-C.\n(§1) The prey sequences were fused to the Ga14 transcription-activating domain.\n(§2) Supplementary experiments were carried out in order to reduce and identify the size of the sequences responsible for this interaction between SASPase_28 and filaggrin-2."}, "SASPase": {"target": "T3, SASPase (Homo sapiens, UniProt Q53RT3)", "T3 construct": "expressed in transfected cells; host or cells: double-hybrid system", "T3 sequence (Q53RT3 1-259 isoform Q53RT3-2)": "T1 sequence (Q53RT3 85-343)", "experiment": "double-hybrid interaction of filaggrin-2 fragments with SASPase", "type": "binding", "conditions": "N-terminal S100 domain of filaggrin-2, amino acids 2-95", "procedure": "The interaction with a SASPase was found using, as bait, the filaggrin-2 fragment identified as interacting with the SASPase_28 and SASPase_37 sequences, and corresponding to amino acids 2-213 of the Genbank sequence: gi:62122916.\nThe sequence was fused to the DNA-binding domain, LexA, according to the orientation N-LexA-FLG22-213-C.\nas §1, §2"}}}
{"molecule": "SEQ ID NO: 10: peptide of 8 to 20 amino acids synthesized from positions 71 to 90 of FLG2, SEQ ID NO: 9 (FTEFLLMIFKLTMACNKVLS; /mol_type=“protein” /organism=“Homo sapiens”; listed as Homo sapiens)", "values": [{"measurement": "ability to increase the catalytic activity of SASPase", "setting": "SASPase_28", "result": "particularly significant ability to increase"}]}
{"molecule": "SEQ ID NO: 11: peptide of 8 to 20 amino acids synthesized from positions 71 to 90 of FLG2, SEQ ID NO: 9 (EFLLMIFKLTMACNK; /mol_type=“protein” /organism=“Homo sapiens”; listed as Homo sapiens)", "values": [{"measurement": "ability to increase the catalytic activity of SASPase", "setting": "SASPase_28", "result": "particularly significant ability to increase"}]}
{"molecule": "SEQ ID NO: 12: peptide of 8 to 20 amino acids synthesized from positions 71 to 90 of FLG2, SEQ ID NO: 9 (LMIFKLTMACNKVLS; /mol_type=“protein” /organism=“Homo sapiens”; listed as Homo sapiens)", "values": [{"measurement": "ability to increase the catalytic activity of SASPase", "setting": "SASPase_28", "result": "particularly significant ability to increase"}]}
{"molecule": "SEQ ID NO: 13: peptide of 8 to 20 amino acids synthesized from positions 71 to 90 of FLG2, SEQ ID NO: 9 (LMIFKLTMACNKV; /mol_type=“protein” /organism=“Homo sapiens”; listed as Homo sapiens)", "values": [{"measurement": "ability to increase the catalytic activity of SASPase", "setting": "SASPase_28", "result": "particularly significant ability to increase"}]}
{"molecule": "SEQ ID NO: 14: peptide of 8 to 20 amino acids synthesized from positions 71 to 90 of FLG2, SEQ ID NO: 9 (TEFLLMIFKLTMACNK; /mol_type=“protein” /organism=“Homo sapiens”; listed as Homo sapiens)", "values": [{"measurement": "ability to increase the catalytic activity of SASPase", "setting": "SASPase_28", "result": "particularly significant ability to increase"}]}
{"molecule": "SEQ ID NO: 15: peptide of 8 to 20 amino acids synthesized from positions 71 to 90 of FLG2, SEQ ID NO: 9 (TEFLLMIF; /mol_type=“protein” /organism=“Homo sapiens”; listed as Homo sapiens)", "values": [{"measurement": "ability to increase the catalytic activity of SASPase", "setting": "SASPase_28", "result": "particularly significant ability to increase"}]}
{"molecule": "B1", "values": [{"measurement": "interaction with FLG2", "setting": "filaggrin-2 (FLG2)", "result": "sufficient for the interaction with FLG2"}]}
{"molecule": "B2", "values": [{"measurement": "enzymatic activity of SASPase", "setting": "SASPase_28; SASPase_28 0.025 mg/ml, substrate 0.01 mM, PBS, 37° C., FLG2-Hs at 0.01 to 10 times the SASPase concentration", "result": "significantly increased"}]}
{"molecule": "B3", "values": [{"measurement": "interaction with SASPase", "setting": "SASPase", "result": "involved in the interaction with SASPase"}]}
